Experimental findings from PMC8537452 are described below.

Test [1] has as its target long carboxyl terminus (CTL) of rat Cav1.3L (rat).
Test [2] shares this target. This is another data set of the same source.
The target is the same in test [3]. This is another data set of the same source.

Chain of long carboxyl terminus (CTL) of rat Cav1.3L (rat) (P27732 1460-2155): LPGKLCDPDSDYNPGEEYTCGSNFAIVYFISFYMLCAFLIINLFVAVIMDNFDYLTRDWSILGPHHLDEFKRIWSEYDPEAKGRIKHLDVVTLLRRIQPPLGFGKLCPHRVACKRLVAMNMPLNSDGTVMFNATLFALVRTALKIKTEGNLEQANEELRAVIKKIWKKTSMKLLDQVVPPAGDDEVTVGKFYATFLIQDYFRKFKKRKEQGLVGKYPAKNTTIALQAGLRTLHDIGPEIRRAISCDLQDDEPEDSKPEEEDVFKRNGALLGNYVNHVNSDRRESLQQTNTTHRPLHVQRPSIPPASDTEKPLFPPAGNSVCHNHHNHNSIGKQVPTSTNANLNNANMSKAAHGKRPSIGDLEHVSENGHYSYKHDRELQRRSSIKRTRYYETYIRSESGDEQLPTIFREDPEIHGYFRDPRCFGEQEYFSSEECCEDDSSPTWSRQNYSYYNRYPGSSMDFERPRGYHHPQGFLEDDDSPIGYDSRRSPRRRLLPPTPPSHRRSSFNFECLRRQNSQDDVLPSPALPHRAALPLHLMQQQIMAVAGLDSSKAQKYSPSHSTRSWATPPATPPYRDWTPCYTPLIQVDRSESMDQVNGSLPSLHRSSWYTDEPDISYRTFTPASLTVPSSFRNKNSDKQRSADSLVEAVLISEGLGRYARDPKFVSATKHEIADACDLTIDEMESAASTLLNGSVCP

In test [1], rat Snapin2 (natural protein) came in with an average peak current amplitude at −10 mV of Cav1.3L/β3 with vs. without Snapin2 in Xenopus oocytes of -2410 nA and a maximal chord conductance of Cav1.3L channels without vs. with Snapin2 in Xenopus oocytes of 28.1 μS. In addition, the maximal chord conductance of Cav1.3L channels without vs. with Snapin2 in HEK-293 cells in test [2] stood at 1.86 nS/pF.

B1: rat Snapin1 (natural protein)
chain: MAAAGSAAVSGAGTPVAGPTGRDLFAEGLLEFLRPAVQQLDSHVHAVRESQVELREQIDNLATELCRINEDQKVALDLDPYVKKLLNARRRVVLVNNILQNAQERLRRLNHSVAKETARRRAMLDSGVYPPGSPSK
B1 showed a maximal normalized chord conductance of Cav1.3L without or with Snapin1 in HEK-293 cells in test [3] of 2.09 nS/pF.
